Experimental data: the nanobody polyreactivity screen of Harvey et al. (2022)

test: yeast display, Sf9 membrane polyspecificity reagent, FACS + sequencing; frameworks hold sequencing errors
In short: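 Sorting gates, low and high (top ~1%), were placed on anti-HA fluorescence to track expression and on streptavidin fluorescence to track reagent binding. A clone's polyreactivity label is taken from the gate it came out of. The reagent was 10% biotinylated, detergent-solubilized Sf9 membrane, applied for 1 hour at 4 °C to galactose-induced yeast display cells.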

Sequence	polyreactivity (PSR sort gate)
QVQLVESGGGLVQAGGSLRLSCAASGSTSPVYAMGWYRQAPGKERELVAAISSSGSRTYYADSVKGRFTISRDNAKNTVYLQMNCLKPEDSAVYYCAADWWAWRAYYYWGQGTQVTVSS	high polyreactivity
QVQLVESGGGLVQAGGSLRLSCAASGSTSQPYAMGWYRQAPGKERELVASITNGGITYYADSVKGRFTISRDNAKNTVYLQMNSLKPEDTAVYYCNADNVFEGYDRRSARASYRYYYWGQGTQVTVSS	low polyreactivity
QVQLVESGGGLVQAGGSLRLSCAASGSTSQSNAMGRYRQAPGKERELVAAISWSGTSTYYADSVKGRFTISRDNAKNTVYLQMNSLKPEDTAVYYCAADYIFDYDYWGQGTQVTVSS	low polyreactivity
QVQLVESGGGLVQAGGSLRLSCAASGSTSRKYTMGWYRQAPGKERELVATISWSGGSTYYADSVKGRFTISRDNAKNTVYLQMNSLKPEDTAVYYCAAATKVRNLGSFESPGPEVDYWGQGTQVTVSS	high polyreactivity
QVQLVESGGGLVQAGGSLRLSCAASGSTSRTYAMGWYRQAPGQEMELVAAISSSGGRTYYADSVKGRFTISRDTAKNTVYLEMNSLKPEDTAVYYCNARTYSYRGYNYWGQGTQVTVSS	high polyreactivity
QVQLVESGGGLVQAGGSLRLSCAASGSTSRYAMGWYRQAPGKERELVAAITRSGGTTYYADSVKGRYTISRDNAKNTVYLQMNSLKPEDTAVYYCATSDRQVKYDYWGQGTQVTVSS	low polyreactivity
QVQLVESGGGLVQAGGSLRLSCAASGSTSSNNAMGWYRQAPGKEREFVADISSRGGSTYYADSVKGRFTISRDNAKNTVYLQMNSLKPEDTAVYYCARTRFWLRYRLFDYWGQGTHVTVSS	low polyreactivity
QVQLVESGGGLVQAGGSLRLSCAASGSTSSVYAIGWYRQAPGKEREFVASITRRTGITFYADSVKGRFTISRDHAKNTVYLQMNSLKPEDTAVYYCAADFSGSVDYWGQGTQVTVSS	high polyreactivity
QVQLVESGGGLVQAGGSLRLSCAASGSTSTTYTMGWYRQAPGKERELVAAISYSGGSTYYADSVKGRFTISRDNAKHTVYLQMNSLKPEDTAVYYCAAQSFVGWREYESWGQGTQVTVSS	high polyreactivity
QVQLVESGGGLVQAGGSLRLSCAASGSTSTYYAMGWYRQAPGKERELVAAITLGAGRTYADSVKGRFTISRDNAKNTVYLQMNSLKPEDTAVYYCAADSHIDHGKWAYDYWGQGTQVTVSS	low polyreactivity
QVQLVESGGGLVQAGGSLRLSCAASGSTSVINAMGGNRQAPGKERELVAGISGSGGSTYYADSVKGRFTISRDNAKNTVYLLMNSLKPEDTAVYYCAKRFYRPVPGGYYWGQGTQVTVSS	high polyreactivity
QVQLVESGGGLVQAGGSLRLSCAASGSTSVVNAMGWYRQAPGKERELVAAISTGGASTYYADSVKGRFTISRDNAKNTVYLQMNSLNPEDTAVYYCAADLGYEYDYWGQGTQVTVSS	high polyreactivity
QVQLVESGGGLVQAGGSLRLSCAASGSTSVYYAMGWYRQTPGKERELVAAINWNGGRTYYADSVKGRFTISRDNAKNTVYLQMNSLKPEDTAVYYCATDSGDGEGDYWGQGTQVTVSS	low polyreactivity
QVQLVESGGGLVQAGGSLRLSCAASGSTSWRNTMGWYRQAPGKERELVAAIRNVGSTYYADSVKGLFTISRDNAKNTVYLQMNSLKPEDTAVYYCNARWRFLYDYWGQGTQVTVSS	high polyreactivity
QVQLVESGGGLVQAGGSLRLSCAASGSTSYRYAMGWYRQAPGKQRELVAGITRSGGSTYYADSVKGRFTMSRDNAKNSVYLQMNSLKPEDTAVYYCAAYYSRQYVGYGYWGQGTQVTVSS	high polyreactivity
QVQLVESGGGLVQAGGSLRLSCAASGSTSYWYAMGWYRQAPGKERELVAAISSDDSTNYADSVKGRFTISRDNAKNTVYLQMNSLKPEDTAVYYFNREHYLIRYDYWGQGTQVTVSS	low polyreactivity
QVQLVESGGGLVQAGGSLRLSCAASGSTTYYAMGWYRQAPGKERELVAAISYSGGSTFYADSVKGRFRISRDNAKNTVYLQMNSLKPEDTAVYYCAADLGFPFDYWGQGTKVTVSS	low polyreactivity
QVQLVESGGGLVQAGGSLRLSCAASGSTVESNVMGWYRQAPGKERELVAAISYSGGSTYIADSVKGRFTISRDNAKNTVYLQLNSLNPEDTAVLYSNALTSGYLYTFHRLWYPMYYWGQGTQGTVSS	high polyreactivity
QVQLVESGGGLVQAGGSLRLSCAASGSTVFGNAMGWYRQAPGKERELVAAITSGGSTNYADSVKGRFTISRDNAKNTVYLQMNSLKPEDTAVYYCAKPSRWGWTGFYAYDYWGQGTQVTVSS	low polyreactivity
QVQLVESGGGLVQAGGSLRLSCAASGSTVGLYTMGSYRHAPGKEMELFAAISWSDGSTYYEDSVKGRFTISRDNAKNTVYLQMISLKPEDTAVYYCAAEFLYQQSSWEFDYWGQGTQVTVSS	low polyreactivity
QVQLVESGGGLVQAGGSLRLSCAASGSTVRRNTMGWYRQAPGKERELVAGISSSGGSTYYADSVKGRFTISRDNAKNTVYLQINSLKPEDTAVYYCAARFYVSYVGYNYWGQGTQVTVSS	high polyreactivity
QVQLVESGGGLVQAGGSLRLSCAASGSTVRVYAMGWYRQAPGKERELVARISITGGTTRYADSVKGRFTISRDNAKNTVYLQMNSLKPEDTAVYYCNADYDWYYWYLYKYPFDYWRQGTQVTVSS	low polyreactivity

Sequence	polyreactivity (PSR sort gate)
QVQLVESGGGLVQAGGSLRLSCAASGSTVTSNAMGWSRQAPGKERELVAAISSGGSTYYADSVKGRFTISRDNAKNTVYLQMNSLKPEDTAVYYCAAEWHYIYAYDYWGQGTQVTVSS	low polyreactivity
QVQLVESGGGLVQAGGSLRLSCAASGSTVVYYAMGWYRQAPGKERELVAAITSGGSTNYADSVKGRFTISRDNAKITVYLQMNSLKPEDTAVYYCNAEPETTIDYWGQGTQVTVSS	low polyreactivity
QVQLVESGGGLVQAGGSLRLSCAASGSTVWKYVMGWYRQAPGKERELVAAISNSGVNTYYADSVKGRFTISRDNAKNTVYLQMNSLKTEDTAVYYCAADRGGYEYWGQGTQVTVSS	high polyreactivity
QVQLVESGGGLVQAGGSLRLSCAASGSTVYQYVMGRYRQAPGKVREFVAAITFSGSRTYYADSVKGRFTISRDNAKNTVYLQMNSLKPEDTAVYYCAVHSTSPRGKRYEYWGQGTQVTVSS	high polyreactivity
QVQLVESGGGLVQAGGSLRLSCAASGSTVYVYAMGWYRQAPGKERELVATISSSGAITYYADSVKGRFTISRDNAKNTVYLQMNSLKPEDTAVYYCARTGSLLSQVWYNYWGQGTQVTVSS	low polyreactivity
QVQLVESGGGLVQAGGSLRLSCAASGSTWYYAMGWYRQAPGKERELVATISSGSRTYYADSVKGRFTISRDNAKNTVYLQMNSLKPEDTAVYYCAARESYAELNYWGQGTQVTVSS	high polyreactivity
QVQLVESGGGLVQAGGSLRLSCAASGSTWYYAMGWYRQAPGKERELVATISSGSRTYYADSVKGRFTISRDNAKNTVYLQMNSLKPEDTAVYYCAARRRRFYYQYYRYDYWGQGTQVTVSS	high polyreactivity
QVQLVESGGGLVQAGGSLRLSCAASGSTYAGYAMGWYRQAPGKERELVAAISRRGGSTYYADSVKGRFTISRDNAKNTVYLQMNSLKPEDTAVNYCNRDKYLRDPDYDYWGQGTQVTVSS	low polyreactivity
QVQLVESGGGLVQAGGSLRLSCAASGSTYANAMGWYRQAPGKERELVAAITDNGGRTYYADSVKGRFTISRDNAKNTFYLQMNSLKPEDTAVYYCAARSSVWGQGTQVTVSS	low polyreactivity
QVQLVESGGGLVQAGGSLRLSCAASGSTYARYAMGWYRQAPGKEREFVAAISASGGRTYYADSVKGRFTISRDNAKNTVYLQMNSLKPEDTPVDYCAVRVYAKYFAKYDYWGQGTQVTVSS	high polyreactivity
QVQLVESGGGLVQAGGSLRLSCAASGSTYAYAMGWYRQAPGKEREFVAAITRSGGSTYYADSVKGRFTISRDNAKITVYLQMNSLKPEDTAVYYCRGNSTSWRGSQMDYWGQGTQVTVSS	high polyreactivity
QVQLVESGGGLVQAGGSLRLSCAASGSTYENAMGWYRQAPGKERELVAVISRSGGSTYYADSVKGRFTISRDNAKNTVYLQMNSLKPEDTAVYYCATVYSAWSWVHGYYVAMDYWGQGTQVTVSS	high polyreactivity
QVQLVESGGGLVQAGGSLRLSCAASGSTYERYAMGWYRQAPGKERELVAAISAIGDSTYYADSVKGRITISRDNANNTVYLQMNSLKPEDTAVYYCAARYTRYHIGRGYYYWGQGTQVTVSS	high polyreactivity
QVQLVESGGGLVQAGGSLRLSCAASGSTYFHYAMGWYRQAPGKERELVAAISKSVGTTYYADSVKGRFTISRDNAKNTVYLQMNSLKPEDPAVYYCAADSVITWWAYDYWGQGTQVTVSS	high polyreactivity
QVQLVESGGGLVQAGGSLRLSCAASGSTYPYYAMGWYRQAPGKERELVAAITSSTGRTYYADAVKGRFTISRDNAKNTVYLQMNSLKPEDSAVYYCATYSTSVAYHLYYWGQGTQVTVSS	low polyreactivity
QVQLVESGGGLVQAGGSLRLSCAASGSTYQGNAMGWYRQAPGKERELVAAISRSGGSTYADSVKGRFTISRDNAKNTVYLQMNSLKPEDTAVYYCAAYSGVGYLWFDYWGQGTQVTVSS	low polyreactivity
QVQLVESGGGLVQAGGSLRLSCAASGSTYQNAMGWYRQAPGKEREFVAAISWSGGSTYYADSVKGRFTISRDNAKNTVYLQMNSLKPEDTAVYYCAAYSYFSPRYDYWGQGTQVTVSS	high polyreactivity
QVQLVESGGGLVQAGGSLRLSCAASGSTYRGNAMGWYRQAPGKEREFVAAITVSGGSTYYADSVKGRFTISRDNAKNTVFLQMNSLKPEDTAVYYCAARLTYNYYWGQGTQVTVSS	high polyreactivity
QVQLVESGGGLVQAGGSLRLSCAASGSTYTNAMGWYRQAPGKERELVAAITWSGGTTYYADSVKGRFTISLDNAKNTVYLPMNSLKPEDTAVYYCAAEYRWYSWGQGTQVSVSS	high polyreactivity
QVQLVESGGGLVQAGGSLRLSCAASGSTYTRYAMGLYRQAPGKEMELVATINVSGDRTYYADSVKGRFTISRDNAKNTVYLQMNSLKPEDTAVYYCNKYRYQWPYRRFDYWGQGTQVTVSS	high polyreactivity
QVQLVESGGGLVQAGGSLRLSCAASGSTYYRYDMGWYRQAPGKERELCAAINWNGGTTYYADSVKGRFTISRDNAKNNVYLQMNSLKPEDTAVYYCTARSNSYVYPRLYNYWGQGTQVTVSS	high polyreactivity
